# The DeepSol protein solubility set
# Test: soluble on expression in E. coli; label from the status in PepcDB or PDB records
row,Sequence,soluble on expression in E. coli
1,DYSYLFGQGGTELFGEFAGAANGAVGTINGLRYTHPVGGSYMLVGRYIPADYWSYYRGAFARYSRPGNEWGVMGRAAWELPSDRTVRAFADYYGSFVPRFGRKEKTEALYWMFEGEKRLSALSWSCRIRGTADKRYRRSLAVRLRGRYMFDERWRLMASLQWSRSNSFDRELQTWQAPTGGKSFALRADYSGGKLLRVCSMDAVAFDTDSFADRLYEAVHNPRHHYSSAFFYGRGVRLGVFVRIAPLPQVEVESRIDHLLRRDTDTIGSAGELIRGQARTHLFMTVRYR,not soluble
2,MAHHHHHHMTSFKDCLREVREAATEHLEGYRGGDTEKALQHIPREEALTTISLVAIRLLEQELPKRGAGNDASQHELHAQLRACRKALKSHSARSAAGDEGTSDKKRRRTEESTEAPTSSSYRGSATADRSGTSNSIELGQYASSDAFDQNEQKRMKFARLMGGAKVAAQGTGGAGGHSRHNTFAASNAELKRMNANLESQFESAMSHKGKKGLGA,soluble
3,MPCRGLHAIPAGPPEFPELATIYVVCGDKLNVMIDAGVTNSIMDSSFLEKLDLVILTHIHIDHIGLLPEILDRYKNAKVMIKNGFKKFLTTEDGVRRLNESSEKVLGDLYYIYGEFTKIDPDKVVEVEGGEMIDIGDGKTLKIIYTPGHAKHHISVVSDDILFTGDSGGAYFNGAVIPTTPPPLDYDNYVNSLRLQISLKPKVVGLAHGGLVSPNILEQHLDQMLGKESFDIGEIDIGGIGGEILRKQVEVNLRGLNEALGRNKKTLLEHHHHHH,not soluble
4,MRLIVVSGQSGAGKSVALRVLEDLGYYCVDNLPVSLLTAFIQSVQGSQQNVAVSIDIRNLPKEPSLVQDVLDQLKQNNDVSMLFLDASKETLLKRYSETRRIHPLSLSQSKPSLAQAIELEKQLLGPLKEQADLLLDSSNQSLHELSETVRMRIEGRERKDLVMVFQSFGFKYGLPTDADYVFDVRFLPNPHWEPDLRPLTGLDAPIKSFLEGHSEVMELKQQIQKFFEYWLPMLEKNNRSYLTIAIGCTGGKHRSVYLTQQLGEYFAQLGHQVQLRHTSLEKQQS,not soluble
5,MGSDKIHHHHHHMISSITSSIPKDVLYAAAEWYATLYDEDCSENDRQTWQRWLHEDETHRLAWQQVEQIHARFHAVDSQLASSVLSRRGEERRRMLKLLVIASVTGGVGFSLPWDSYAADYRTGTGETRELSIETGMTVWLNTDSALNQQGNPALSQPLTFQLIKGELMLDNQTAHAARLTTPHGDLAAAAYSCQLALRYTSAHSVLSVFSGEVLLQTAVPAAQRVTAGQQVIFTRDRCSEPAPVENFRQSWRKGLLVADSMPLGQLINEISRYHNGYFHVDSAVTNLRISGVFPLHETDRLLDAIVRTLPVKVSRRFSWWVDIRPS,not soluble
6,MGSDKIHHHHHHMQNIIIEARVNELATRIGNPHVPFLPAEVIADAKACHDAGASIFHFHGRNEDGTPSHDPNFYLETNAGIRAQSDILIHPTLGYVANDTDAKGRFAAIEQMMQSAETAPDFAPMDTGSVNVDWWNPDEGKYDTTELIYKNSTGTLMYFADRIRHYNLTPYLVSWNVSFTRQIEQFLKMGVLDAPAYICFCMTDEIIFAGHPGTEAGLDAHTAFLPPEFETVWTVVNYKGDLFQLTEKIIRTGGHISIGLGDYAYMDGSRHMTNAEVIAKVADQARRLGREPASVAETREILNMKTPRIAA,not soluble
7,MTRRVLLLSASVLLATAGYAPEPYYNKYGGYHKALDKKHGGYEADQTGYGGHNGMSDYGNEQGAYGHYDGKYGEAGKKSGQEYYAKGDEHGHGDEAHEKGLKKNGDAYGGKKFSYFTSGSGPYGSYQKGYYGSDGYEHDDHKSKYSSHNEDNGFKKGYDGAGAGHDDKYTSYDKEDAGHKKHHDKYDIGKYGAKQGGYAKQGHEEGWKNEAQKNSYGSRENGQEYGHPYY,not soluble
8,MIIKSISLMHDRGNGLGGGFAAYGIYPDFKEFFAFHLMYENGMALQLTEEYLERHFFVEHYEEIPTRRTPAIVHPPLFKRYFVKPLETPEYREAIDYQNMTDEDVVVRHVMAINNEIEGAFVVSSGKNMGAFKGVGYPEEIADFFRLEEYTGYIWTAHNRFPTNTPGWWGGAHPFTLLDWSIVHNGEISSYGINKRYLEMYGYVCTMLTDTEVVAYTLDLLIRKHGLTPELASLAMAAPFWDMIDGLPDDERQLLTAIRQVYGSALLNGPFAILFASNEGLIGLNDRVKLRPLVCATKDDFVYMASEEAAIREICPAPDKVWSPRGGEPVIVKMQPGVI,not soluble
9,MQEIIASVDHIKFDLEIAVEQQLGAQPLPFPGMDKSGAAVCEFFLKAACGKGGMCPFRHISGEKTVVCKHWLRGLCKKGDQCEFLHEYDMTKMPECYFYSKFGECSNKECPFLHIDPESKIKDCPWYDRGFCKHGPLCRHRHTRRVICVNYLVGFCPEGPSCKFMHPRFELPMGTTEQPPLPQQTQPPAKQRTPQVIGVMQSQNSSAGNRGPRPLEQVTCYKCGEKGHYANRCTKGHLAFLSGQ,soluble
10,MPMLTRILLLLCVALNAPLASAKETLHIYAASSMTNAVNALVADYSQQHDVKLVTVYGGSSSLARQIEAGAPADLFISANEEWANYLVEKGLVKPNKVVTLAANSLVLIRPTAQPVASFELQDAAAWQTALADSRLAVAQVDAVPAGMYAKQALQHAGVWPELESRLAQTNNVRLALALVERGESPLGIVYKTDALLSDKVTIVTAFSAQSHQPIRYPLAQLNDKAASAEWVAYLRSDAAQQILQRFGFESVSE,not soluble
11,AHHHHHHGSRTNAFEAVARYVYPSLRRRLVEILRERGLTQIQIAELLHITQSAVSRYLRMNRGALIEVEKFQDIDEKLKGLADTIVREKPDEYYIHGELVKIAVEMLGKGYVCSFHSKVDPEIDPKLCRICIETFG,not soluble
12,MSGYDRALSIFSPDGHIFQVEYALEAVKRGTCAVGVKGKNCVVLGCERRSTLKLQDTRITPSKVSKIDSHVVLSFSGLNADSRILIEKARVEAQSHRLTLEDPVTVEYLTRYVAGVQQRYTQSGGVRPFGVSTLIAGFDPRDDEPKLYQTEPSGIYSSWSAQTIGRNSKTVREFLEKNYDRKEPPATVEECVKLTVRSLLEVVQTGAKNIEITVVKPDSDIVALSSEEINQYVTQIEQEKQEQQEQDKKKKSNH,soluble
13,SARKKIREYDSKRLLKEHLKRLANIDLQIRSAQVTESTDFTELTNQESWLSSTKLVVKPDMLFGKRGKSGLVALKLDLAEVADFVKARLGTEVEMEGCKAPITTFIVEPFVPHDQEYYLSIVSDRLGCTISFSECGGIEIEENWDKVKTIFLPAEKSMTLEVCAPLIATLPLEVRAKIGNFIMGAFAVFQDLDFSFMEMNPFTLVDGEPFPLDMRGELDDTAAFKNFNKWGDIEFPLPFGRVLSSTENFIHGLDEKTSASLKFTVLNPKGRIWTMVAGGGASVIYADTVGDLGYASELGNYAEYSGAPNEEEVLQYARVVIDCATTDPDGRKRALLIGGGIANFTDVAATFNGIIRALREKETRLKASRMHIYVRRGGPNYQTGLARMRALGEELGVPLEVYGPEATMTGICKRAIDCIMLPDA,not soluble
14,MSAVLNGKKPVSILLLGTDTGALGRNYKGRTDTIILATINPKTKTTTLMSLPRDSEVAVSGFEQDFPTKLNAAYAYGSAGTTIKTVQKWLNVPIDYYALINMGGMKKVVDEIGGVDITPIRTFTYEGYTFTKGQKEHMNGAKALAYSRMRYDDPLGDYGRQQRQRQLITAIIGESASASNLLKQDFLNSLAKQTRTDLTFGNLTSIVTNYRSATKNIVSDHAQGTGKMIDGQSFEVVSQSEKQRVTNVLRKSLNLKAATTGEKFANQNLEHHHHHH,soluble
